We go through 1 substance from publication doi:10.1101/2023.04.03.535215.

This experiment has as its target Recombinant SARS-CoV-2 spike protein (SARS-CoV-2) (UniProt P0DTC2). The experiment in a line: ELISA. Background: ELISA stands for enzyme-linked immunosorbent assay.

Take “Native human surfactant protein A (from UniProt Q8IWL2 21-248) (natural protein)”: the percent decrease of binding in 10 mM EDTA was determined as 46%.
